Tests used:
[1] = biological target: T1, TMEW1 (TMEFF2-FL-ECD-His-Avitag) (human, UniProt Q9UIK5 41-320); assay: Biacore 8K SPR, mAb captured on anti-human Fc, single cycle kinetics
T1 construct: Human TMEFF2 ECD with C-terminal G3S, 6xHis tag and Avi-tag, all in the entry; also called TMEFF2 ECD
T1 sequence: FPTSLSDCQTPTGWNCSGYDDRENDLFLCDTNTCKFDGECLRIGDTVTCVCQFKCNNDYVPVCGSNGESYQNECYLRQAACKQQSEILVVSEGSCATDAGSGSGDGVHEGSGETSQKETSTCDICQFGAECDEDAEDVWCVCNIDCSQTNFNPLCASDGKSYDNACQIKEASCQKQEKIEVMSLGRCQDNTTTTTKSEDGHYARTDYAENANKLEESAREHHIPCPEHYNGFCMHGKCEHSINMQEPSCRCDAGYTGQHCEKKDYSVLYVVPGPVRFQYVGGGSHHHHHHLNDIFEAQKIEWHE
Experimental: The binding of anti-TMEFF2 mAbs to human TMEFF2 ECD was measured by Biacore 8K SPR. The format of the assay was to capture the mAbs using a high density anti-human Fc surface, then inject human TMEFF2 concentration titration using a single cycle kinetics method. […] The mAbs were captured on the anti-human Fc IgG surface at 0.5 μg/ml (˜200-300 RU) on flow cell 2. The running buffer was then changed to HBSP+100 ug/ml BSA. TMEFF2 ECD at 30 nM concentration in 3-fold dilution series was injected from low to high concentration using single cycle kinetics method. The off-rate was monitored 30 minutes after the last or highest concentration injection and then the surface was regenerated using 0.8% phosphoric acid (Bio-Rad). A buffer blank run, capturing the same mAbs and using the same conditions of sample run was also completed. The raw data were processed by subtracting two sets of reference data from the response data: 1) reference flow cell 1 subtracted from sample flow cell 2 and 2) buffer blank run from experimental run. The processed data at all concentrations for each mAb were globally fit to a 1:1 simple Langmuir binding model to extract estimates of the kinetic (kon, koff) and affinity (KD) constants.

[2] = biological target: T2, human PSMA on cells (LNCaP) (human, UniProt Q04609 1-750); assay: flow cytometry, mammalian Fab supernatant on LNCaP cells, anti-human kappa-RPE
T2 construct: whole, on cells; also called LNCaP cells
Experimental: Individual Fab clones were isolated from the round 3 output of all panning experiments following pIX excision. Fab clones were tested for binding to chimp and cyno PSMA expressing HEK cells, as well as to human PSMA on LNCaP cells. Briefly, PSMA expressing cells were aliquoted into a V-bottom plate (CoStar 3357) at a density of 200,000 per well and incubated with (100 μl) supernatants expressing Fab fragments for 1 hour on ice. Cells were washed twice with PBS containing 2% FBS, and stained with a mouse anti-human kappa-RPE antibody (Life Technologies cat #MH10514) for 1 hour on ice. Cells were washed twice with PBS containing 2% FBS and resuspended in […] of the same wash buffer. Plates were read on a BD FACS Array flow cytometer. FACS data was analyzed in FlowJo software by live gating the healthy population of cells using forward scatter and side scatter, and then analyzing the cells within this gate for PE staining. Mean fluorescence intensity (MFI) was calculated and exported into Microsoft Excel. […] Fabs were sequenced and moved forward for cloning into mammalian expression vector for rescreening. True positives were selected from the binding of mammalian cell expressed Fab supernatants to PSMA-expressing cell lines.
FIGS. 22A, 22B, 22C and 22D show the titration curves for anti-PSMA panning hits vs. LNCaP cells. […] Binding profiles among hits were compared across cell lines expressing different species of PSMA.

Rh-CD19 = biological target: T3, Rh-CD19 (UniProt P15391 20-291, limits assumed); assay: Biacore 8K SPR, antibody over immobilised protein
T3 construct: rh read as recombinant human
T3 sequence (looked up): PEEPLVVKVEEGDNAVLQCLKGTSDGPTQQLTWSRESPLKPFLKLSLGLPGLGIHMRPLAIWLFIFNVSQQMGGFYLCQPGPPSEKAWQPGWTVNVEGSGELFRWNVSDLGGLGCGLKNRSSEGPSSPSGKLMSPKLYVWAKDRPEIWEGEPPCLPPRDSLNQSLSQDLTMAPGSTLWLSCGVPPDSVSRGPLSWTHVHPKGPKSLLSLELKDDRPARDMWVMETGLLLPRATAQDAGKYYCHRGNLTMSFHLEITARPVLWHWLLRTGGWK
Experimental: (§1) Non-specific binding of the lead molecule to unrelated surfaces is determined by biosensor technology (Biacore 8K). Antibody is passed over SPR surfaces coated with unrelated proteins. […] Irrelevant surfaces include negatively charged protein (Soy Trypsin Inhibitor), positively charged protein (Lysozyme and β-defensin), hydrophobic (Rh-integrin a4b7), human IgG, sticky protein (Rh-CD19). Proper controls are used in this experiment. Lead is flown over two surfaces, one is a blank and the other has a molecule directly immobilized. The response unit (RU) level is determined by subtracting the blank RU from the test surface RU. […] A response unit ≥100 predicts high risks for non-specific binding to charged/hydrophobic/IgG surfaces which would create challenges during manufacturing and translate to poor PK properties.

Rh-integrin a4b7 = biological target: T4, Rh-integrin a4b7 (UniProt P13612 34-977; P26010 20-723, limits assumed); assay: Biacore 8K SPR, antibody over immobilised protein
T4 construct: rh read as recombinant human
Experimental: as §1

Human CD33 full length = Human CD33 full length (human, UniProt P20138 18-364); assay: cell-based or functional assay
Human CD33 ECD-HSA = biological target: T5, Human CD33 ECD-HSA (human); assay: SPRi off-rate screen (IBIS MX96)
T5 construct: CD33 ECD fused at the C-terminus to monomeric HSA (C58S) and a six-histidine tag; also called C33W2; huCD33 ECD-HSA

Human CD33 full length, sequence (P20138 18-364 limits assumed): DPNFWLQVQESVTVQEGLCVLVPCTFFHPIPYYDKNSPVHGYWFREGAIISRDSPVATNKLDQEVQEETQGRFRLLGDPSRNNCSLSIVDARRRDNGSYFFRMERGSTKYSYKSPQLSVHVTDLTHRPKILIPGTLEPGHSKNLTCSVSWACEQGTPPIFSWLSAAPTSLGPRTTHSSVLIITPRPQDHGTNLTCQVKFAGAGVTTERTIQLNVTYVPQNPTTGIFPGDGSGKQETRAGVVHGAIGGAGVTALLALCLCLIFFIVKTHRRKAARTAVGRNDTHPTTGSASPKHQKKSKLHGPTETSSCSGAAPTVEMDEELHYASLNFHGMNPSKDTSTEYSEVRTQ
T2 sequence (Q04609 whole entry): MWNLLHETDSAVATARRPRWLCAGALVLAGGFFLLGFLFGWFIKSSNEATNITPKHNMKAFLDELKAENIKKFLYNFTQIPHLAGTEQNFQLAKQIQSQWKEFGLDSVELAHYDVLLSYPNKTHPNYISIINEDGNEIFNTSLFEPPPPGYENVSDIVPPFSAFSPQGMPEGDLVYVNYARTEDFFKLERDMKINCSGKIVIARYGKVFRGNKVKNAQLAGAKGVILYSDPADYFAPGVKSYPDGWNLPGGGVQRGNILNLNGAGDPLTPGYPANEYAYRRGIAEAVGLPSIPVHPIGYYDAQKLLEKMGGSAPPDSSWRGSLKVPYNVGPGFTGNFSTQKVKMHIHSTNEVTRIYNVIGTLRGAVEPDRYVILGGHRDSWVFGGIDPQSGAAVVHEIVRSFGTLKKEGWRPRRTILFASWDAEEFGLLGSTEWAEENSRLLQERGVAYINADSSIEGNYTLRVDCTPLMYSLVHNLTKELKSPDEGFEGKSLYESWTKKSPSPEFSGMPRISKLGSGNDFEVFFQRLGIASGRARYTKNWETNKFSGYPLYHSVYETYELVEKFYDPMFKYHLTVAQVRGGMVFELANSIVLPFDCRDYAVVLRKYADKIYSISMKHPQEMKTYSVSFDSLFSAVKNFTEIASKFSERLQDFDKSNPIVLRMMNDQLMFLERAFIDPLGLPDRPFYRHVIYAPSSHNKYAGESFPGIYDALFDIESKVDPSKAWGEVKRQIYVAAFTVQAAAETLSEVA

B1: TMEB757 (antibody, human IgG4 S228P, kappa, F234A L235A, V domains shown)
VH: EVQLLESGGGLVQPGGSLRLSCAASGFTFSSYSMSWVRQAPGKGLEWVSVISGSGGFTDYADSVKGRFTISRDNSKNTLYLHMNSLRAEDTAVYYCARMPLNSPHDYWGQGTLVTVSS
VL: AIQMTQSPSSLSASVGDRVTITCRASQGIRNDLGWYQQKPGKAPKLLIYAASSLQSGVPSRFSGSGSGTDFTLTISSLQPEDFATYYCLQDYNYPLTFGGGTKVEIKR
notes: IgG4 PAA anti-TMEFF2; re-engineered variant of TMEB675; also called TMEH460/B76L85; TMEFB757
- Kd [1]: 0.31 nM
- koff [1]: 0.000167 s⁻¹
- kon [1]: 542000 M⁻¹ s⁻¹

B2: PSMM81 (Fab, V domains shown)
VH: QVQLVQSGAEVKKPGSSVKVSCKASGGTFDDYAISWVRQAPGQGLEWMGRIDPIEGTANYAQKFQGRVTITADESTSTAYMELSSLRSEDTAVYYCARDRYYYDGVYWYSDYFDYWGQGTLVTVS
VL: not shown
notes: Mammalian Fab supernatant; also called PSMB80
- EC50 (read off the curve) [2]: ~0.08 µg/mL

B3: TMCB150 (bispecific antibody, human IgG4 S228P, kappa, lambda, F234A L235A)
heavy 1: not shown
light 1: not shown
heavy 2: QVQLQQSGPRLVRPSQTLSLTCAISGDSVFNNNAAWSWIRQSPSRGLEWLGRTYYRSKWLYDYAVSVKSRITVNPDTSRNQFTLQLNSVTPEDTALYYCARGYSSSFDYWGQGTLVTVSSASTKGPSVFPLAPCSRSTSESTAALGCLVKDYFPEPVTVSWNSGALTSGVHTFPAVLQSSGLYSLSSVVTVPSSSLGTKTYTCNVDHKPSNTKVDKRVESKYGPPCPPCPAPEAAGGPSVFLFPPKPKDTLMISRTPEVTCVVVDVSQEDPEVQFNWYVDGVEVHNAKTKPREEQFNSTYRVVSVLTVLHQDWLNGKEYKCKVSNKGLPSSIEKTISKAKGQPREPQVYTLPPSQEEMTKNQVSLTCLVKGFYPSDIAVEWESNGQPENNYKTTPPVLDSDGSFLLYSKLTVDKSRWQEGNVFSCSVMHEALHNHYTQKSLSLSLGK
light 2: QSALTQPASVSGSPGQSITISCTGTSSNIGTYKFVSWYQQHPDKAPKVLLYEVSKRPSGVSSRFSGSKSGNTASLTISGLQAEDQADYHCVSYAGSGTLLFGGGTKLTVLGQPKAAPSVTLFPPSSEELQANKATLVCLISDFYPGAVTVAWKADSSPVKAGVETTTPSKQSNNKYAASSYLSLTPEQWKSHRSYSCQVTHEGSTVEKTVAPTECS
notes: IgG4 PAA; also called TMEB762×CD3B376
- binding result (Rh-CD19): no binding (tested: response unit ≥100 predicts high risks)
- binding result (Rh-integrin a4b7): no binding (tested: response unit ≥100 predicts high risks)

B4: C3CB97 (bispecific antibody, IgG4, V domains shown)
VH 1: QVQLVQSGSELRKPGASVKVSCKASGYTFTNYAMNWVRQAPGQGLEWMGWINTNTGNPTYAQGFTGRFVFSLDTSVSSAYLQISSLKAEDTAMYYCATDRDRGTDYWGQGTLVTVSS
VL 1: QSALTQPASVSGSPGQSITISCTGTSSDVGDYNYVSWYQQHPGKVPKLMIYDVSNRPSGVSNRFSGSMSGNTASLTISGLQAEDEADYYCSSYSSSSALEVFGGGTKLTVL
VH 2: QVQLQQSGPRLVRPSQTLSLTCAISGDSVFNNNAAWSWIRQSPSRGLEWLGRTYYRSKWLYDYAVSVKSRITVNPDTSRNQFTLQLNSVTPEDTALYYCARGYSSSFDYWGQGTLVTVSS
VL 2: QSALTQPASVSGSPGQSITISCTGTSSNIGTYKFVSWYQQHPDKAPKVLLYEVSKRPSGVSSRFSGSKSGNTASLTISGLQAEDQADYHCVSYAGSGTLLFGGGTKLTVL
- Primary AML Cell Killing EC50 (Human CD33 full length): ~0.232 nM

B5: C3CB12 (bispecific antibody, IgG4, V domains shown)
VH 1: not shown
VL 1: SYELTQPPSVSVSPGQTASITCSGNKLGAKFASWYQQKPGQSPVLVIYQDNKRPSGIPERFSGSNSGNTATLTISGTQAVDEADYYCQAWDSSTVVFGGGTKLTVL
VH 2: EVQLVESGGGLVQPGGSLRLSCAASGFTFNTYAMNWVRQAPGKGLEWVARIRSKYNNYATYYAASVKGRFTISRDDSKNSLYLQMNSLKTEDTAVYYCARHGNFGNSYVSWFAYWGQGTLVTVSS
VL 2: QTVVTQEPSLTVSPGGTVTLTCRSSTGAVTTSNYANWVQQKPGQAPRGLIGGTNKRAPGTPARFSGSLLGGKAALTLSGVQPEDEAEYYCALWYSNLWVFGGGTKLTVL
- Primary AML Cell Killing EC50 (Human CD33 full length): 2.63 nM

B6: C3CB102 (bispecific antibody, IgG4, V domains shown)
VH 1: not shown
VL 1: SYELTQPPSVSVSPGQTASITCSGNKLGAKFASWYQQKPGQSPVLVIYQDNKRPSGIPERFSGSNSGNTATLTISGTQAVDEADYYCQAWDSSTVVFGGGTKLTVL
VH 2: QVQLQQSGPRLVRPSQTLSLTCAISGDSVFNNNAAWSWIRQSPSRGLEWLGRTYYRSKWLYDYAVSVKSRITVNPDTSRNQFTLQLNSVTPEDTALYYCARGYSSSFDYWGQGTLVTVSS
VL 2: QSALTQPASVSGSPGQSITISCTGTSSNIGTYKFVSWYQQHPDKAPKVLLYEVSKRPSGVSSRFSGSKSGNTASLTISGLQAEDQADYHCVSYAGSGTLLFGGGTKLTVL
- Primary AML Cell Killing EC50 (Human CD33 full length): 4.97 nM

B7: C33B782 (antibody, IgG4, V domains shown)
VH: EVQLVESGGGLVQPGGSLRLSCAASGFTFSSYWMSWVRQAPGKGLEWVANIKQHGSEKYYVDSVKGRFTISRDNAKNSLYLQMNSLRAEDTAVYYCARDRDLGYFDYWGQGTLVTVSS
VL: SYELTQPPSVSVSPGQTASITCSGNKLGAKFASWYQQKPGQSPVLVIYQDNKRPSGIPERFSGSNSGNTATLTISGTQAVDEADYYCQAWDSSTVVFGGGTKLTVL
notes: also called C33H72/C33L40; C33F82
- koff (Human CD33 ECD-HSA): 0.000258 s⁻¹

B8: C3CB103 (bispecific antibody, IgG4, V domains shown)
VH 1: QVQLVESGGGVVQPGRSLRLSCVASGFTFSSYGMHWVRQAPGKGLEWVAVISYDGSNKYYADSVKGRFTISRDNSKNTLYLQMNSLRAEGTAVYYCAKDFRSFDWLPPDSASYHGMDVWGQGTTVTVSS
VL 1: SYELTQPPSVSVSPGQTASITCSGDKLGDKYACWYQQKPGQSPVLVIYQDGKRPSGIPERFSGSNFGNKATLTISGTQAMDEADYYCQAWDRNTVVFGGGTKLTVL
VH 2: QVQLQQSGPRLVRPSQTLSLTCAISGDSVFNNNAAWSWIRQSPSRGLEWLGRTYYRSKWLYDYAVSVKSRITVNPDTSRNQFTLQLNSVTPEDTALYYCARGYSSSFDYWGQGTLVTVSS
VL 2: QSALTQPASVSGSPGQSITISCTGTSSNIGTYKFVSWYQQHPDKAPKVLLYEVSKRPSGVSSRFSGSKSGNTASLTISGLQAEDQADYHCVSYAGSGTLLFGGGTKLTVL
- Primary AML Cell Killing EC50 (Human CD33 full length): 4.19 nM

B9: C3CB7 (bispecific antibody, IgG4, V domains shown)
VH 1: QVQLVQSGSELRKPGASVKVSCKASGYTFTNYAMNWVRQAPGQGLEWMGWINTNTGNPTYAQGFTGRFVFSLDTSVSSAYLQISSLKAEDTAMYYCATDRDRGTDYWGQGTLVTVSS
VL 1: QSALTQPASVSGSPGQSITISCTGTSSDVGDYNYVSWYQQHPGKVPKLMIYDVSNRPSGVSNRFSGSMSGNTASLTISGLQAEDEADYYCSSYSSSSALEVFGGGTKLTVL
VH 2: EVQLVESGGGLVQPGGSLRLSCAASGFTFNTYAMNWVRQAPGKGLEWVARIRSKYNNYATYYAASVKGRFTISRDDSKNSLYLQMNSLKTEDTAVYYCARHGNFGNSYVSWFAYWGQGTLVTVSS
VL 2: QTVVTQEPSLTVSPGGTVTLTCRSSTGAVTTSNYANWVQQKPGQAPRGLIGGTNKRAPGTPARFSGSLLGGKAALTLSGVQPEDEAEYYCALWYSNLWVFGGGTKLTVL
- Primary AML Cell Killing EC50 (Human CD33 full length): 0.332 nM

B10: C33B792 (antibody, IgG4, V domains shown)
VH: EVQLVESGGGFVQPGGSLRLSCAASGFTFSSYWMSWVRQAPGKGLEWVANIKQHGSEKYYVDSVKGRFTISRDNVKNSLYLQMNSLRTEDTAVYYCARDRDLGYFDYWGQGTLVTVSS
VL: SYELTQPPSVSVSPGQTASITCSGDKLGNKYASWYQQKPGQSPVLVIYQDTKRPSGIPERVSGSNSGNTATLTISGTQAMDEADYHCQAWDSSTVVFGGGTKLTVL
notes: also called C33H87/C33L35; C33F92
- koff (Human CD33 ECD-HSA): 0.000427 s⁻¹

— patent US20230322924A1 (Janssen / Centocor, published 2023)
